Test results taken from patent US20240317834A1, “COMPOSITIONS AND METHODS FOR NEUROLOGICAL DISEASES” (CODA BIOTHERAPEUTICS, INC., priority 2020, published 2024).
Residue numbers refer to the chain shown, from its start. In names and notes the source's numbering stands.

Tested on: Lenti-X 293T cells
Experiment: YFP fluorescence quenching anion reporter plate reader assay of engineered receptors stimulated with acetylcholine or a non-native ligand
Format: cell-based
Settings: for percent quench of YFP fluorescence, 30 nM TC-6683: TC-6683 30 nM; for percent quench of YFP fluorescence, 300 nM TC-6683: TC-6683 300 nM; for percent quench of YFP fluorescence, 3 uM TC-6683: TC-6683 3 uM; for percent quench of YFP fluorescence, 30 uM TC-6683: TC-6683 30 uM; for percent quench of YFP fluorescence, 100 uM TC-6683: TC-6683 100 uM; for percent quench of YFP fluorescence, 10 uM ach: acetylcholine 10 uM; for percent quench of YFP fluorescence, 100 uM ach: acetylcholine 100 uM; for percent quench of YFP fluorescence, 1 mM ach: acetylcholine 1 mM; for percent quench of YFP fluorescence, 3 mM ach: acetylcholine 3 mM
Method in brief: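 Lenti-X 293T cells carrying a YFP anion reporter were transiently transfected with channel DNA and assayed the next day in HEPES-buffered ECS at pH 7.2. Ligand (acetylcholine or non-native ligand) was added in NaI-substituted ECS. Percent quench was the mean of the last 10 s relative to the 15 s pre-addition baseline.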

B1: CODA945: engineered chimeric LGIC receptor, Q139E in SEQ ID NO: 33 (protein)
chain: MRCSPGGVWLALAASLLHVSLQGEFQRKLYKELVKNYNPLERPVANDSQPLTVYFSLSLLQIMDVDEKNQVLTTNIWLQMSWTDHYLQWNVSEYPGVKTVRFPDGQIWKPDILLYNSADERFDATFHTNVLVNSSGHCEYLPPGIFKSSCPMDLKNFPMDVQTCKLKFGSWSYGGWSLDLQMQEADISGYIPNGEWDLVGIPGKRSERFYECCKEPYPDVTFTVTMRRRMGYYLIQMYIPSLLIVILSWISFWINMDAAPARVGLGITTVLTMTTQSSGSRASLPKVSYVKAIDIWMAVCLLFVFSALLEYAAVNFVSRQHKELLRFRRKRRHHKSPMLNLFQEDEAGEGRFNFSAYGMGPACLQAKDGISVKGANNSNTTNPPPAPSKSPEEMRKLFIQRAKKIDKISRIGFPMAFLIFNMFYWIIYKIVRREDVHNQ
modifications: synthetic sequence of chimeric LGIC
YFP fluorescence quenching using CNL001 (1 nM CNL001, first column): 6.65% | YFP fluorescence quenching using CNL001 (1 nM CNL001, second column): 13.512% | YFP fluorescence quenching using TC-5619/Bradanicline (3 nM brd): 14.15% | YFP fluorescence quenching using Varenicline (3 nM var, first column): 8.207 | YFP fluorescence quenching using Varenicline (3 nM var, second column): 7.835 | YFP fluorescence quenching using CNL001 (10 nM CNL001, first column): 78.678% | YFP fluorescence quenching using CNL001 (10 nM CNL001, second column): 82.723% | YFP fluorescence quenching using TC-5619/Bradanicline (30 nM brd): 78.18% | YFP fluorescence quenching using Facinicline (30 nM fac): −7.16 | YFP fluorescence quenching using Varenicline (30 nM var, first column): 9.509 | YFP fluorescence quenching using Varenicline (30 nM var, second column): 10.204 | YFP fluorescence quenching using CNL001 (50 nM CNL001, first column): 84.91% | YFP fluorescence quenching using CNL001 (50 nM CNL001, second column): 84.849% | YFP fluorescence quenching using ABT-126 (50 nM abt): −8.27% | YFP fluorescence quenching using CNL001 (100 nM CNL001, first column): 85.046% | YFP fluorescence quenching using CNL001 (100 nM CNL001, second column): 84.642% | YFP fluorescence quenching using CNL002 (100 nM CNL002): 60.5% | YFP fluorescence quenching using ABT-126 (100 nM abt): 4.76% | YFP fluorescence quenching using AZD-0328 (100 nM azd0328): −5.79% | YFP fluorescence quenching using ABT-126 (300 nM abt): 30.88% | YFP fluorescence quenching using AZD-0328 (300 nM azd0328): 58.47% | YFP fluorescence quenching using TC-5619/Bradanicline (300 nM brd): 76.8% | YFP fluorescence quenching using Facinicline (300 nM fac): 71.17 | YFP fluorescence quenching using Varenicline (300 nM var, first column): 9.818 | YFP fluorescence quenching using Varenicline (300 nM var, second column): 12.539 | YFP fluorescence quenching using Varenicline (500 nM var, first column): 16.762 | YFP fluorescence quenching using Varenicline (500 nM var, second column): 15.21 | YFP fluorescence quenching using CNL001 (1 uM CNL001, first column): 85.493% | YFP fluorescence quenching using CNL001 (1 uM CNL001, second column): 86.071% | YFP fluorescence quenching using CNL002 (1 uM CNL002): 75.41% | YFP fluorescence quenching using ABT-126 (1 uM abt): 60.66% | YFP fluorescence quenching using TC-6987 (1 uM tc6987): −0.97 | YFP fluorescence quenching using Varenicline (1 uM var, first column): 48.292 | YFP fluorescence quenching using Varenicline (1 uM var, second column): 54.096 | YFP fluorescence quenching using TC-6987 (10 uM tc6987): 21.53 | YFP fluorescence quenching using CNL002 (30 uM CNL002): 77.46% | YFP fluorescence quenching using AZD-0328 (30 uM azd0328): 66.57% | YFP fluorescence quenching using Facinicline (30 uM fac): 72.14 | YFP fluorescence quenching using TC-6987 (500 uM tc6987): 7.39 | percent quench of YFP fluorescence, 30 nM TC-6683: −26.47% | percent quench of YFP fluorescence, 300 nM TC-6683: −18.62% | percent quench of YFP fluorescence, 3 uM TC-6683: −13.39% | percent quench of YFP fluorescence, 30 uM TC-6683: −16.6% | percent quench of YFP fluorescence, 100 uM TC-6683: −12.89% | percent quench of YFP fluorescence, 10 uM ach: −1.25% | percent quench of YFP fluorescence, 100 uM ach: 71.21% | percent quench of YFP fluorescence, 1 mM ach: 71.79% | percent quench of YFP fluorescence, 3 mM ach: 76.04%

B2: CODA337: engineered chimeric LGIC receptor, L131N in SEQ ID NO: 33 (protein)
chain: B1 chain with L131N, E139Q
modifications: synthetic sequence of chimeric LGIC
YFP fluorescence quenching using CNL001 (1 nM CNL001, first column): 76.917% | YFP fluorescence quenching using CNL001 (1 nM CNL001, second column): 79.554% | YFP fluorescence quenching using TC-5619/Bradanicline (3 nM brd): 71.02% | YFP fluorescence quenching using Varenicline (3 nM var, first column): 3.093 | YFP fluorescence quenching using Varenicline (3 nM var, second column): 12.327 | YFP fluorescence quenching using CNL001 (10 nM CNL001, first column): 79.479% | YFP fluorescence quenching using CNL001 (10 nM CNL001, second column): 79.506% | YFP fluorescence quenching using TC-5619/Bradanicline (30 nM brd): 78.43% | YFP fluorescence quenching using Facinicline (30 nM fac): 82.25 | YFP fluorescence quenching using Varenicline (30 nM var, first column): 77.097 | YFP fluorescence quenching using Varenicline (30 nM var, second column): 77.653 | YFP fluorescence quenching using CNL001 (50 nM CNL001, first column): 81.465% | YFP fluorescence quenching using CNL001 (50 nM CNL001, second column): 81.297% | YFP fluorescence quenching using ABT-126 (50 nM abt): −11.64% | YFP fluorescence quenching using CNL001 (100 nM CNL001, first column): 82.619% | YFP fluorescence quenching using CNL001 (100 nM CNL001, second column): 81.722% | YFP fluorescence quenching using CNL002 (100 nM CNL002): 76.37% | YFP fluorescence quenching using ABT-126 (100 nM abt): 34.79% | YFP fluorescence quenching using AZD-0328 (100 nM azd0328): 82.1% | YFP fluorescence quenching using ABT-126 (300 nM abt): 60.08% | YFP fluorescence quenching using AZD-0328 (300 nM azd0328): 82.52% | YFP fluorescence quenching using TC-5619/Bradanicline (300 nM brd): 77.12% | YFP fluorescence quenching using Facinicline (300 nM fac): 83.59 | YFP fluorescence quenching using Varenicline (300 nM var, first column): 79.446 | YFP fluorescence quenching using Varenicline (300 nM var, second column): 79.998 | YFP fluorescence quenching using Varenicline (500 nM var, first column): 80.691 | YFP fluorescence quenching using Varenicline (500 nM var, second column): 80.309 | YFP fluorescence quenching using CNL001 (1 uM CNL001, first column): 81.96% | YFP fluorescence quenching using CNL001 (1 uM CNL001, second column): 81.773% | YFP fluorescence quenching using CNL002 (1 uM CNL002): 80.18% | YFP fluorescence quenching using ABT-126 (1 uM abt): 65.99% | YFP fluorescence quenching using TC-6987 (1 uM tc6987): 79.06 | YFP fluorescence quenching using Varenicline (1 uM var, first column): 80.258 | YFP fluorescence quenching using Varenicline (1 uM var, second column): 79.509 | YFP fluorescence quenching using TC-6987 (10 uM tc6987): 82.36 | YFP fluorescence quenching using CNL002 (30 uM CNL002): 80.93% | YFP fluorescence quenching using AZD-0328 (30 uM azd0328): 82.32% | YFP fluorescence quenching using Facinicline (30 uM fac): 82.82 | YFP fluorescence quenching using TC-6987 (500 uM tc6987): 80.19 | percent quench of YFP fluorescence, 30 nM TC-6683: −11.51% | percent quench of YFP fluorescence, 300 nM TC-6683: −13.17% | percent quench of YFP fluorescence, 3 uM TC-6683: −5.46% | percent quench of YFP fluorescence, 30 uM TC-6683: 8.53% | percent quench of YFP fluorescence, 100 uM TC-6683: 14.41% | percent quench of YFP fluorescence, 10 uM ach: 28.32% | percent quench of YFP fluorescence, 100 uM ach: 81.8% | percent quench of YFP fluorescence, 1 mM ach: 71.22% | percent quench of YFP fluorescence, 3 mM ach: 73.7%
